{"source": "patent US10532083B2", "about": "“Methods for inducing differentiation or conversion of white adipocytes and/or preadipocytes to brown adipocites using FGF8” (Technische Universität München, priority 2014, dated 2020)", "molecules": {"B1": {"name": "FGF8a: human recombinant FGF8 spliceform a (R&D Systems); SEQ ID NO:15 (protein)", "chain": "MGSPRSALSCLLLHLLVLCLQAQHVREQSLVTDQLSRRLIRTYQLYSRTSGKHVQVLANKRINAMAEDGDPFAKLIVETDTFGSRVRVRGAETGLYICMNKKGKLIAKSNGKGKDCVFTEIVLENNYTALQNAKYEGWYMAFTRKGRPRKGSKTRQHQREVHFMKRLPRGHHTTEQSLRFEFLNYPPFTRSLRGSQRTWAPEPR", "modifications": "human FGF8a"}, "B2": {"name": "FGF8e: human recombinant FGF8 spliceform e (R&D Systems); SEQ ID NO:17 (protein)", "chain": "MGSPRSALSCLLLHLLVLCLQAQEGPGRGPALGRELASLFRAGREPQGVSQQHVREQSLVTDQLSRRLIRTYQLYSRTSGKHVQVLANKRINAMAEDGDPFAKLIVETDTFGSRVRVRGAETGLYICMNKKGKLIAKSNGKGKDCVFTEIVLENNYTALQNAKYEGWYMAFTRKGRPRKGSKTRQHQREVHFMKRLPRGHHTTEQSLRFEFLNYPPFTRSLRGSQRTWAPEPR", "modifications": "human FGF8e"}, "B3": {"name": "FGF8f: human recombinant FGF8 spliceform f (R&D Systems); SEQ ID NO:18 (protein)", "chain": "MGSPRSALSCLLLHLLVLCLQAQEGPGRGPALGRELASLFRAGREPQGVSQQVTVQSSPNFTQHVREQSLVTDQLSRRLIRTYQLYSRTSGKHVQVLANKRINAMAEDGDPFAKLIVETDTFGSRVRVRGAETGLYICMNKKGKLIAKSNGKGKDCVFTEIVLENNYTALQNAKYEGWYMAFTRKGRPRKGSKTRQHQREVHFMKRLPRGHHTTEQSLRFEFLNYPPFTRSLRGSQRTWAPEPR", "modifications": "human FGF8f"}, "B4": {"name": "FGF17: human recombinant fibroblast growth factor 17 (PeproTech), FGF8 subfamily; SEQ ID NO:23 (protein)", "chain": "MGAARLLPNLTLCLQLLILCCQTQGENHPSPNFNQYVRDQGAMTDQLSRRQIREYQLYSRTSGKHVQVTGRRISATAEDGNKFAKLIVETDTFGSRVRIKGAESEKYICMNKRGKLIGKPSGKSKDCVFTEIVLENNYTAFQNARHEGWFMAFTRQGRPRQASRSRQNQREAHFIKRLYQGQLPFPNHAEKQKQFEFVGSAPTRRTKRTRRPQPLT", "modifications": "human FGF17"}, "B5": {"name": "FGF21: endocrine fibroblast growth factor 21, prior-art browning factor (Fisher et al. 2012) (protein, UniProt Q9NSA1 29-209, looked up)", "Fibroblast growth factor 21": "HPIPDSSPLLQFGGQVRQRYLYTDDAQQTEAHLEIREDGTVGGAADQSPESLLQLKALKPGVIQILGVKTSRFLCQRPDGALYGSLHFDPEACSFRELLLEDGYNVYQSEAHGLPLHLPGNKSPHRDPAPRGPARFLPLPGLPPALPEPPGILAPQPPDVGSSDPLSMVGPSQGRSPSYAS"}}, "key": {"[1]": {"test_system": "subcutaneous, inguinal white adipocytes", "assay": "Ucp1 / brown adipocyte marker mRNA (qPCR) in immortalized inguinal white adipocytes treated with FGFs", "type": "cell-based, murine", "details": "inguinal adipocytes; six days of differentiation; FGF8a, b, e, f 25.0 ng/ml, FGF17 10.0 ng/ml", "method": "(§1) Screening paracrine FGFs for a browning potential. A, B—Screening of all paracrine FGFs in immortalized white adipocytes. Subcutaneous, inguinal and visceral, epididymal white adipocytes were grown to confluence in Dulbecco's modified Eagle's medium with 4.5 g/l glucose, supplemented with 20 nmol/l insulin, 1 nmol/l triiodothyronine, 20% fetal bovine serum, and penicillin/streptomycin. Upon reaching confluence, differentiation was induced with 500 mmol/l isobutylmethylxanthine, 250 mmol/l indomethacine, and 2 mg/ml dexamethasone for 24 hours. Subsequently, members of the paracrine FGF protein family were added to the medium for the following six days. The medium and the FGF indicated were changed every 48 hours. Untreated cells served as a negative control. At the end of the differentiation process total RNA was isolated using TRIzol reagents, RNA quality and concentration was measured by photometric analysis, and 5 μg of total RNA was reverse-transcribed to cDNA. Finally, quantitative analysis of UCP-1 mRNA expression was performed. A bar graph analysis including the SEM of 3 to 6 independent experiments is shown. […] B—Four different splicing forms of the Fgf8 gene were compared by quantifying Ucp1 mRNA expression in fully differentiated white adipocytes. UCP-1 mRNA abundance is shown in percent of the FGF8b value. Fgf8b and Fgf8f were able to increase expression in epididymal adipocytes. C—Illustration depicting the different exon usage that characterizes the FGF8 spliceforms a, b, e, and f.\n(§2) Dose dependency of Ffg8b action. A, B—Subcutaneous, inguinal and visceral, epididymal white adipocytes were grown to confluence in Dulbecco's modified Eagle's medium with 4.5 g/l glucose, supplemented with 20 nmol/l insulin, 1 nmol/l triiodothyronine, 20% fetal bovine serum, and penicillin/streptomycin. Upon reaching confluence, differentiation was induced with 500 mmol/l isobutylmethylxanthine, 250 mmol/l indomethacine, and 2 mg/ml dexamethasone for 24 hours. Subsequently, FGF8b in five indicated concentrations were added to the medium for the following six days. The medium and the FGF8b were changed every 48 hours. Untreated cells served as a negative control. At the end of the differentiation process total RNA was isolated using TRIzol reagents, RNA quality and concentration was measured by photometric analysis, and 5 μg of total RNA was reverse-transcribed to cDNA. Finally, quantitative analysis of UCP-1 mRNA expression was performed. FGF8b induces Ucp1 mRNA abundance in inguinal and epididymal adipocytes. Epididymal fat cells were more dose dependently responsive to Fgf8b treatment as compared to inguinal cells. The latter were responsive to FGF8b treatment above the threshold indicated. B—The absolute increase of several genes typical for brown fat cells.\n(§3) Treatment timecourse experiment. A, B—Subcutaneous, inguinal and visceral, epididymal white adipocytes were grown to confluence (prolif. denotes proliferation period) in Dulbecco's modified Eagle's medium with 4.5 g/l glucose, supplemented with 20 nmol/l insulin, 1 nmol/l triiodothyronine, 20% fetal bovine serum, and penicillin/streptomycin. Upon reaching confluence, differentiation was induced with 500 mmol/l isobutylmethylxanthine, 250 mmol/l indomethacine, and 2 mg/ml dexamethasone for 24 hours (induction). Subsequently, the cells were cultured for another six days (differentiation). At the end of the differentiation process total RNA was isolated using TRIzol reagents, RNA quality and concentration was measured by photometric analysis, and 5 μg of total RNA was reverse-transcribed to cDNA. Finally, quantitative analysis of UCP-1 mRNA expression was performed. Untreated cells served as a negative control. A bar graph analysis including the SEM of 5 independent experiments is shown. A—Epididymal fat cells were treated with FGF8b during different time windows as given by black squares indicating one day of treatment each. […]"}, "[2]": {"test_system": "visceral, epididymal white adipocytes", "assay": "Ucp1 / brown adipocyte marker mRNA (qPCR) in immortalized epididymal white adipocytes treated with FGFs", "type": "cell-based, murine", "details": "epididymal adipocytes; six days of differentiation; FGF8a, b, e, f 25.0 ng/ml, FGF17 10.0 ng/ml", "method": "as §1, §2, §3"}, "[3]": {"test_system": "subcutaneous white adipose tissue", "details": "cited from earlier work"}}}
{"molecule": "B1", "values": [{"measurement": "Induction of Ucp1 mRNA expression (browning potential), screening of paracrine FGFs and FGF8 spliceforms", "setting": "[1]", "value": "did not induce Ucp1 mRNA expression"}, {"measurement": "Induction of Ucp1 mRNA expression (browning potential), screening of paracrine FGFs and FGF8 spliceforms", "setting": "[2]", "value": "did not induce Ucp1 mRNA expression"}]}
{"molecule": "B2", "values": [{"measurement": "Induction of Ucp1 mRNA expression (browning potential), screening of paracrine FGFs and FGF8 spliceforms", "setting": "[1]", "value": "did not induce Ucp1 mRNA expression"}, {"measurement": "Induction of Ucp1 mRNA expression (browning potential), screening of paracrine FGFs and FGF8 spliceforms", "setting": "[2]", "value": "did not induce Ucp1 mRNA expression"}]}
{"molecule": "B3", "values": [{"measurement": "Induction of Ucp1 mRNA expression (browning potential), screening of paracrine FGFs and FGF8 spliceforms", "setting": "[1]", "value": "only effective in inducing Ucp1 expression in adipocytes of epididymal adipocytes"}, {"measurement": "Induction of Ucp1 mRNA expression (browning potential), screening of paracrine FGFs and FGF8 spliceforms", "setting": "[2]", "value": "effective"}]}
{"molecule": "B4", "values": [{"measurement": "Induction of Ucp1 mRNA expression (browning potential), screening of paracrine FGFs and FGF8 spliceforms", "setting": "[1]", "value": "strongly induce Ucp1 mRNA expression"}, {"measurement": "Induction of Ucp1 mRNA expression (browning potential), screening of paracrine FGFs and FGF8 spliceforms", "setting": "[2]", "value": "increased expression of Ucp1 mRNA expression"}]}
{"molecule": "B5", "values": [{"measurement": "Appearance of brown-like adipocytes", "setting": "[3]", "value": "increases the appearance of brown-like adipocytes"}]}
